Non-standard residues stand in square brackets, D forms with d. Phe(4-NO2) = N[C@@H](Cc1ccc([N+](=O)[O-])cc1)C(=O)O

For one experiment, the system named is EPCAM. Description: Antibody titer in serum of immunized mice, indirect ELISA. The conditions noted are these: FIG. 16; compared with the EPCAM group and the EPCAM-PADRE group; mice immunized subcutaneously, 50 μg, Freund's adjuvant. It is filed as in vivo. The method, then: (§1) The protocol is as follows: • (1) The helper epitope was connected to individual antigens or antigen epitope with the linking peptide to construct multiple fusion antigens. The sequence of the linking peptide is GPSL (i.e. Gly-Pro-Ser-Leu) (SEQ ID NO:51). • (2) The fusion antigens from (1) were emulsified adequately with complete Freund's adjuvant of the same volume. Then to immunize mice via subcutaneous injection with the emulsion at the dose of 50 μg per mouse. The strains of experimental mice including C57, Fvb and Balb/C. After 7 days and 14 days of first immunization, the fusion antigens from (1) were emulsified adequately with incomplete Freund's adjuvant of the same volume and then to immunize mice via subcutaneous injection with the emulsion at the dose of 50 μg per mouse. • (3) There are two detection methods. One is to obtain the orbital blood of immunized mice on 7, 14, 21 and 28 day respectively, centrifuge the whole blood to get the serum. Then the antibody titer is detected by indirect ELISA. The other one is: one week after the last immunization, the mice are killed to get the spleen. PBMC (peripheral blood mononuclear cells) are isolated, and the CTL-mediated cytotoxicity is detected by LDH (lactate dehydrogenase) kit.
(§2) The first step was to construct the fusion antigen. According to each fusion antigen, C57BL/6 female mice aged 6-8 weeks were randomly divided into three groups with 6 mice in each group. They were PBS group, existing antigen or antigen epitope group, antigen-PADRE or antigen epitope-PADRE group, and vaccine group containing fusion antigen.
(§3) In the second step, using fusion antigen to immunize mice via subcutaneous injection for 3 times […] 50 μg each time. Mixed with Freund's adjuvant of the same volume.
(§4) Method 1: The whole blood was collected every week after immunization and centrifugated at 6000 rpm for 20 min to obtain the serum for a total of 4 weeks. Antibody titers were detected by indirect ELISA as follows: • (1) Coating: the existing antigen or antigen epitope was diluted to 5 μg/mL with coating solution. Then the 100 μL mixed solution was added into each well of enzyme immunoassay test strip, and incubated in 37° C. incubator for 2 h; • (2) use PBST to wash each well 5 times for 5 min each time; • (3) Sealing: 150 μL locking solution was added to each well of the enzyme immunoassay test strip and incubated at 4° C. overnight. • (4) Repeat step (2); • (5) Incubation first antibody: the collected mouse serum was diluted with antibody diluent. Then the 100 μL mixed solution was added into each well, and incubated at 37° C. for 2 h; • (6) Repeat step (2); • (7) Incubating secondary antibodies: HRP-GOAT Anti-mouse IgG was diluted with antibody dilution in the ratio of 1:10000, and 100 μL dilution was added to each well, and incubated at 37° C. for 45 min; • (8) Repeat step (2); • (9) Substrate addition: 100 μL TMB substrate reaction solution was added into each well of enzyme label, and incubated at 37° C. for 15 min in darkness. • (10) Termination reaction: 50 μL 2M H2SO4 was added into each well to terminate the reaction. • (11) Color development: the absorbance value of the sample in each well was detected at 450/630 nm.
(In general: In an ELISA, binding on a coated surface is turned into a signal by an enzyme label.)

For the next experiment, the system named is FR-α. The description is as above. The conditions noted are these: FIG. 15; compared with the FR-α group and the FR-α-PADRE group; mice immunized subcutaneously, 50 μg, Freund's adjuvant. It is filed as in vivo. On the procedure:
as §1, §2, §3, §4

B1: EPCAM-3 ? 11pPhe-PADRE: fusion antigen: EPCAM linked via GPSL to helper epitope SEQ ID NO: 17 (protein)
chain: QEECVCENYKLAVNCFVNNNRQCQCTSVGAQNTVICSKLAAKCLVMKAEMNGSKLGRRAKPEGALQNNDGLYDPDCDESGLFKAKQCNGTSMCWCVNTAGVRRTDKDTEITCSERVRTYWIIIELKHKAREKPYDSKSLRTALQKEITTRYQLDPKFITSILYENNVITIDLVQNSSQKTQNDVDIADVAYYFEKDVKGESLFHSKKMDLTVNGEQLDLDPGQTLIYYVDEKAPEFSMQGLKGPSLAK[Phe(4-NO2)]VAAWTLK[Phe(4-NO2)]AA
For B1, the antibody titers entry with EPCAM is recorded as “increased significantly”.

B2: FRα-3 ? 8pPhe-PADRE: fusion antigen: FR-α linked via GPSL to helper epitope SEQ ID NO: 16 (protein)
chain: RIAWARTELLNVCMNAKHHKEKPGPEDKLHEQCRPWRKNACCSTNTSQEAHKDVSYLYRFNWNHCGEMAPACKRHFIQDTCLYECSPNLGPWIQQVDQSWRKERVLNVPLCKEDCEQWWEDCRTSYTCKSNWHKGWNWTSGFNKCAVGAACQPFHFYFPTPTVLCNEIWTHSYKVSNYSRGSGRCIQMWFDPAQGNPNEEVARFYAAAMSGPSLAKXVAAWXLKAAA
modifications: pPhe non-natural residue; (217)..(217) Xaa stands for 4-Nitrophenylalanine.; (222)..(222) Xaa stands for 4-Nitrophenylalanine.
On to B2, for which the antibody titers result in the experiment on FR-α is given as “increased significantly”.

Values taken from patent US12226476B2, “Helper epitope peptide and application thereof” (CHINA PHARMACEUTICAL UNIVERSITY, priority 2018, dated 2025).
